{"source": "paper PMC7176292", "key": {"[1]": {"molecular_target": "human μ-opioid receptor (μOR), wild type, with HA signal sequence at the N terminus and LgBiT at the C terminus (modified pfastbac1) (human) (UniProt P35372)", "experiment": "split reporter (BiFC, NanoBiT); NanoBiT on Sf9 membranes co-expressing μOR-LgBiT, Gαi1, Gβ1-SmBiT and Gγ2, in PBS pH 7.4; dose-response of FD-3, 15 min at room temperature, luminescence; normalized to DAMGO"}, "[2]": {"molecular_target": "human μ-opioid receptor (μOR), wild type, with HA signal sequence at the N terminus and LgBiT at the C terminus (modified pfastbac1) (human) (UniProt P35372)", "experiment": "split reporter (BiFC, NanoBiT); NanoBiT on Sf9 membranes co-expressing μOR-LgBiT, Gαi1, Gβ1-SmBiT and Gγ2, in PBS pH 7.4; dose-response of fentanyl, 15 min at room temperature, luminescence; normalized to DAMGO"}}}
{"substance": "Gi protein complex (Gαi1, Gβ1 with SmBiT at the C terminus, Gγ2) (from UniProt P63096 1-354; P62873 1-340; P59768 1-71)", "values": [{"measurement": "maximal coupling efficiency relative to morphine", "setting": "[1]", "result": 67, "unit": "%"}, {"measurement": "maximal Gi coupling (normalized to DAMGO)", "setting": "[2]", "result": "> 55", "unit": "%"}]}
